According to paper PMC6589784:
Like-named read-outs stand apart in the source and are kept apart here. Blank lines part the entries; values can stand above or below the substance they belong to.

Tests used:
[1] = molecular target: Mg-ATP-actin (skeletal muscle actin, assembled into filaments) (rabbit or chicken) (UniProt P68135); assay: single-molecule two-color TIRFM
[2] = molecular target: Mg-ATP-actin (skeletal muscle actin, assembled into filaments) (rabbit or chicken) (UniProt P68135); assay: single-molecule two-color TIRFM; remark: listed apart in the source
[3] = molecular target: Mg-ATP-actin (skeletal muscle actin, assembled into filaments) (rabbit or chicken) (UniProt P68135); assay: single-molecule two-color TIRFM; remark: listed apart in the source
[4] = molecular target: Mg-ATP-actin (skeletal muscle actin, assembled into filaments) (rabbit or chicken) (UniProt P68135); assay: bulk seeded pyrene actin assembly
[5] = molecular target: Mg-ATP-actin (skeletal muscle actin, assembled into filaments) (rabbit or chicken) (UniProt P68135); assay: single-color TIRFM of actin elongation rates

processive run length tau, 2-filament trailing barbed ends [1]: 8.9 s
processive run length tau, 3- or more filament trailing barbed ends [1]: 11.2 s
Substance: MBP-SNAP(549)-EnaΔLΔCC-Foldon

processive run length tau, 2-filament trailing barbed ends [1]: 1.5 s
Substance: MBP-SNAP(549)-EnaΔLΔCC-GCN4

average processive run length tau, leading barbed ends [2]: 10.1 s
average processive run length tau, trailing barbed ends [2]: 28.1 s
average processive run length tau, leading barbed ends [1]: 8.4 s
average processive run length tau, trailing barbed ends [1]: 23.7 s
average residence time tau, single filament barbed ends [1]: 10 s
average residence time tau, trailing barbed ends of a two-filament bundle [1]: 21.7 s
average residence time tau, single filament barbed ends [3]: 8.9 s
average residence time tau, trailing barbed ends of a two-filament bundle [3]: 16.8 s
Substance: SNAP(549)-EnaΔL (from UniProt Q8T4F7 1-980) (natural protein)

average residence time tau, single filament barbed ends [1]: 1.2 s
processive run length tau, trailing barbed ends of 2-filament fascin bundles [1]: 2.9 s
Substance: SNAP(549)-UNC-34 (natural protein)

average residence time tau, single filament barbed ends [1]: 1 s
processive run length tau, trailing barbed ends of 2-filament fascin bundles [1]: 2.6 s
Substance: SNAP(549)-VASP (from UniProt P50552 1-380) (natural protein)

Kd [4]: 0.7 nM
Kd [5]: 3.2 nM
Substance: unlabeled EnaΔL (from UniProt Q8T4F7 1-980) (natural protein)

Kd [4]: 10.2 nM
Kd [5]: 6.7 nM
Substance: unlabeled UNC-34 (natural protein)

Kd [4]: 10.8 nM
Kd [5]: 12.2 nM
Substance: unlabeled VASP (from UniProt P50552 1-380) (natural protein)
